Key:
LhgO [1] = target: T1, LhgO (Pseudomonas putida, UniProt Q88IT9); test: oxygen electrode, stimulation of oxidase activity; assay type: biochemical; details: enzyme preincubated with 50 μM FAD 1 h on ice; 5 mM L-2-HG, Tris-HCl pH 7.4, 30 °C
T1 construct: recombinant His-tagged from E. coli BL21(DE3), pETDuet-1; partly lost FAD on purification
T1 sequence (Q88IT9 1-416): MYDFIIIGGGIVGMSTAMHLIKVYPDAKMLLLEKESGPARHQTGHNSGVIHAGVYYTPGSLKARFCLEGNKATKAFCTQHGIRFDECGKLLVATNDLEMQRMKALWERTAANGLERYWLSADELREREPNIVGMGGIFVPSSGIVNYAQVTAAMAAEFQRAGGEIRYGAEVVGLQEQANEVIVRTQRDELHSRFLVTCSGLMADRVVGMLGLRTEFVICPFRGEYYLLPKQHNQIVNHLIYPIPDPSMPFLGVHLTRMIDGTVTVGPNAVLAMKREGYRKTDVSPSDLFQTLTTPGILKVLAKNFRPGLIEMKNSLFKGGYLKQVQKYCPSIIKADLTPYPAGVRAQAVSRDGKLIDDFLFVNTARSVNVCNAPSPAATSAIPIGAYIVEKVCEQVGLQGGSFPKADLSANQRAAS

[2] = target: T2, LhgO homolog from Klebsiella pneumoniae ATCC25955 (Klebsiella pneumoniae, UniProt A6T539); test: L-2-HG oxidation to 2-KG; assay type: biochemical
T2 construct: gene ygaF; recombinant from E. coli BL21(DE3), pETDuet-1, HisTrap purified

LhgO [3] = target: T1, LhgO; test: DCPIP reduction at […] nm; product 2-KG by HPLC and LC-MS/MS; assay type: biochemical; details: 50 mM Tris-HCl pH 7.4, 30 °C, 5 mM L-2-HG, 0.1 mM DCPIP
YgaF = target: T3, YgaF (Escherichia coli, UniProt P37339); test: L-2-HG oxidation to 2-KG; oxygen electrode; assay type: biochemical; details: 50 mM Tris-HCl pH 7.4, 30 °C, 5 mM L-2-HG
T3 construct: gene lhgD; recombinant from E. coli BL21(DE3), pETDuet-1, HisTrap purified
T3 sequence (P37339 1-422): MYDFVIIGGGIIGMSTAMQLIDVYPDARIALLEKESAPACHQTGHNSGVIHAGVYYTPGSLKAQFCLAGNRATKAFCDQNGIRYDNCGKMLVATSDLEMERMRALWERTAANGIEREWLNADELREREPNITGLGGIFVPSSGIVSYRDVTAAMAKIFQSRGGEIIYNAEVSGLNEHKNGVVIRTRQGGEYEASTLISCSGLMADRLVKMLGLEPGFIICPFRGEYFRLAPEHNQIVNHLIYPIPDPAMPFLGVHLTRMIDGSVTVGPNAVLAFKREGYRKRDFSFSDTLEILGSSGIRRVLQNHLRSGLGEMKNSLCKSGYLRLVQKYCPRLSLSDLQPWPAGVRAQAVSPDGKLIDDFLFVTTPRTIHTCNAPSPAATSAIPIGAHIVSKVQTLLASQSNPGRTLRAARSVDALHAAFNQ

[4] = target: T4, CsiD homolog from E. coli K-12 MG1655 (Escherichia coli, UniProt P76621); test: glutarate hydroxylation by purified homolog; assay type: biochemical; details: co-substrate 2-KG
T4 construct: gene glaH; recombinant from E. coli BL21(DE3), pETDuet-1, HisTrap purified

[5] = target: T5, CsiD homolog from Klebsiella pneumoniae ATCC25955 (Klebsiella pneumoniae, UniProt A6T540); test: glutarate hydroxylation by purified homolog; assay type: biochemical; details: co-substrate 2-KG
T5 construct: recombinant from E. coli BL21(DE3), pETDuet-1, HisTrap purified

O=C(O)CCC(=O)C(=O)O = test: Clark-type oxygen electrode, double-reciprocal plot; assay type: biochemical, Pseudomonas putida; details: pH 6.7
Description: (§1) Clark-type oxygen electrode, double-reciprocal plot on CsiD

O=C(O)CCCC(=O)O = test: as above; assay type: biochemical, Pseudomonas putida; details: pH 6.7
Description: as §1

[6] = target: the molecule itself; test: SEC; Superdex 200 10/300 GL, eluent buffer C (50 mM sodium phosphate, 150 mM sodium chloride, pH 7.2), flow 0.5 mL min^-1; calibrated with thyroglobulin, ferritin, aldolase, conalbumin, ovalbumin and RNase A; native mass divided by the calculated monomer mass of 38.9 kDa

T5 sequence (A6T540 entry or part of it): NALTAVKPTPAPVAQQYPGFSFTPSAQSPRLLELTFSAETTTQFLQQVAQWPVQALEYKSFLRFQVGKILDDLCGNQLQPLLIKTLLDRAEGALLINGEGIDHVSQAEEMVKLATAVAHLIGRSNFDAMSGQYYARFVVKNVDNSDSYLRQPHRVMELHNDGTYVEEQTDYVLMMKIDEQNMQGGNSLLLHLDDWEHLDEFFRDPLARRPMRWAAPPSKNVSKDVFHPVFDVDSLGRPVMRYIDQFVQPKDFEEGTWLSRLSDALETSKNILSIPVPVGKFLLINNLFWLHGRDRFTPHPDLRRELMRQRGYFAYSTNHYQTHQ
T4 sequence (P76621 whole entry): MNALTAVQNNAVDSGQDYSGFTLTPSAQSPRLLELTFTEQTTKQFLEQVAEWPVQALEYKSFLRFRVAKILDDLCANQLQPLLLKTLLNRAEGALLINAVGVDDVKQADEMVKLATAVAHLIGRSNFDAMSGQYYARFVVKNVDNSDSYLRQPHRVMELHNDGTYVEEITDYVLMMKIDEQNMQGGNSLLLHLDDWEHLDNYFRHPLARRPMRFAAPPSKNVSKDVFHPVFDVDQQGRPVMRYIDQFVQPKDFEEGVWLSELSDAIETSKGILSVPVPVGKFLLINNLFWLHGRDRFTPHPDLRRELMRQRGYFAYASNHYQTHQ
T2 sequence (A6T539 entry or part of it): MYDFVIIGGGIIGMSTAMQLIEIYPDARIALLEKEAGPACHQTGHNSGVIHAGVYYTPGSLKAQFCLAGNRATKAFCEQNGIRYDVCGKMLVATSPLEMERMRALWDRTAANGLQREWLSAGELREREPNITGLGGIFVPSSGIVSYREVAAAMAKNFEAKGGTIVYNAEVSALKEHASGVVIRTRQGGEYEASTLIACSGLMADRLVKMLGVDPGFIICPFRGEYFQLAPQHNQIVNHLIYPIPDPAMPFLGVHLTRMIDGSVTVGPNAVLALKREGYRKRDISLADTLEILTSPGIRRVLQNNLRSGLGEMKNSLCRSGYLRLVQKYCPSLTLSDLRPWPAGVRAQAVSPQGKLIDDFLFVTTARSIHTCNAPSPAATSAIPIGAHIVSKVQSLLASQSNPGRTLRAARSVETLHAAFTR

Cc1cc2nc3c(=O)[nH]c(=O)nc-3n(C[C@H](O)[C@H](O)[C@H](O)COP(=O)(O)OP(=O)(O)OC[C@H]3O[C@@H](n4cnc5c(N)ncnc54)[C@H](O)[C@@H]3O)c2cc1C [FAD] was tested. Which “oxygen electrode, stimulation of oxidase activity” value (LhgO [1]) did it give?
The value was “The oxidase activity of LhgO can be stimulated by FAD”.

O=C(O)CC[C@H](O)C(=O)O [L-2-HG] was tested. Which “L-2-HG oxidation to 2-KG” value [2] did it give?
Its value is “the homologs of LhgO can catalyze L-2-HG to produce 2-KG”.

What about the “DCPIP reduction at 600 nm; product 2-KG by HPLC and LC-MS/MS” value (LhgO [3]) of the same molecule?
Its value is “Robust activity was detected only when L-2-HG was used as the substrate”.

What about the “L-2-HG oxidation to 2-KG; oxygen electrode” value (YgaF) of the same molecule?
The value was “the homologs of LhgO can catalyze L-2-HG to produce 2-KG”.

How did the “glutarate hydroxylation by purified homolog” value [4] turn out when O=C(O)CCCC(=O)O [glutarate] was run?
The value was “All three homologs of CsiD can catalyze the hydroxylation of glutarate”.

And the “glutarate hydroxylation by purified homolog” value [5]?
Its value is “All three homologs of CsiD can catalyze the hydroxylation of glutarate”.

How did the Km (O=C(O)CCC(=O)C(=O)O) turn out when CsiD (Pseudomonas putida KT2440) was run?
The Km was 95.33 ± 0.97 µM.

What about the Vmax (O=C(O)CCC(=O)C(=O)O) of the same molecule?
Its Vmax is 144 µmol/min/mg.

And the kcat/Km (O=C(O)CCC(=O)C(=O)O)?
The kcat/Km was 7.49e+06 ± 120000 M⁻¹ s⁻¹.

And the Km (O=C(O)CCCC(=O)O)?
The Km was 145.67 ± 1.53 µM.

What about the Vmax (O=C(O)CCCC(=O)O) of the same molecule?
Its Vmax is 264 µmol/min/mg.

What about the kcat/Km (O=C(O)CCCC(=O)O) of the same molecule?
Its kcat/Km is 6.93e+06 ± 30000 M⁻¹ s⁻¹.

B1: CsiD of P. putida KT2440, glutarate hydroxylase (enzyme, Pseudomonas putida KT2440, UniProt Q88IU0 1-325, looked up)
chain: MNAFTQIDELVMPLPLEPQGYTIAPSKQSPRLLELTFARETVEAFVQAVAQWPVQALEYKSFLRFRVGEILDELCQGTLRPVLLNTILDRATGGMLITPIGLDDVSQAEDMVKFTTACAHLIGRSNYDAMSGQFYARFVVVNSDNSDSYLRQPHRVMELHNDGTFVNQITDYVLMLKIDEKNMEGGNSLLLHLDDWEQCEAFFRHPLARREMRWTAPPSKKVAEDVFHSVFDTDAEGRPTMRYIDQFVQPENYEEGIWLNALSESLEGSGKKVSVPVGVGSFLLINNLFWLHGRDRFTPHEGLRRELMRQRGYVAFPKPLYQRGQ
notes: CsiD (glutarate hydroxylase) of Pseudomonas putida KT2440, locus PP2909; gene amplified from genomic DNA with primers csiD-F/csiD-R and cloned EcoRI/HindIII into pETDuet-1; also called PP2909; Fe2+/2-KG-dependent glutarate hydroxylase; source: E. coli BL21(DE3) harboring pETDuet-csiD, purified (HisTrap HP column)
Which “stoichiometry N” value [6] does the source give for B1 here?
Its value is 8.
